# Patent US20190015483A1 (CSL BEHRING RECOMBINANT FACILITY, published 2019)
# “And” between values parts separate entries of the source, which are not always exact repeats. Equal entries are not always repeated.
# T1: recombinant Factor VIII (CSL627, rVIII-SingleChain) (Homo sapiens (Human), UniProt P00451 20-2351)
# T1 construct: also called FVIII
# T1 sequence: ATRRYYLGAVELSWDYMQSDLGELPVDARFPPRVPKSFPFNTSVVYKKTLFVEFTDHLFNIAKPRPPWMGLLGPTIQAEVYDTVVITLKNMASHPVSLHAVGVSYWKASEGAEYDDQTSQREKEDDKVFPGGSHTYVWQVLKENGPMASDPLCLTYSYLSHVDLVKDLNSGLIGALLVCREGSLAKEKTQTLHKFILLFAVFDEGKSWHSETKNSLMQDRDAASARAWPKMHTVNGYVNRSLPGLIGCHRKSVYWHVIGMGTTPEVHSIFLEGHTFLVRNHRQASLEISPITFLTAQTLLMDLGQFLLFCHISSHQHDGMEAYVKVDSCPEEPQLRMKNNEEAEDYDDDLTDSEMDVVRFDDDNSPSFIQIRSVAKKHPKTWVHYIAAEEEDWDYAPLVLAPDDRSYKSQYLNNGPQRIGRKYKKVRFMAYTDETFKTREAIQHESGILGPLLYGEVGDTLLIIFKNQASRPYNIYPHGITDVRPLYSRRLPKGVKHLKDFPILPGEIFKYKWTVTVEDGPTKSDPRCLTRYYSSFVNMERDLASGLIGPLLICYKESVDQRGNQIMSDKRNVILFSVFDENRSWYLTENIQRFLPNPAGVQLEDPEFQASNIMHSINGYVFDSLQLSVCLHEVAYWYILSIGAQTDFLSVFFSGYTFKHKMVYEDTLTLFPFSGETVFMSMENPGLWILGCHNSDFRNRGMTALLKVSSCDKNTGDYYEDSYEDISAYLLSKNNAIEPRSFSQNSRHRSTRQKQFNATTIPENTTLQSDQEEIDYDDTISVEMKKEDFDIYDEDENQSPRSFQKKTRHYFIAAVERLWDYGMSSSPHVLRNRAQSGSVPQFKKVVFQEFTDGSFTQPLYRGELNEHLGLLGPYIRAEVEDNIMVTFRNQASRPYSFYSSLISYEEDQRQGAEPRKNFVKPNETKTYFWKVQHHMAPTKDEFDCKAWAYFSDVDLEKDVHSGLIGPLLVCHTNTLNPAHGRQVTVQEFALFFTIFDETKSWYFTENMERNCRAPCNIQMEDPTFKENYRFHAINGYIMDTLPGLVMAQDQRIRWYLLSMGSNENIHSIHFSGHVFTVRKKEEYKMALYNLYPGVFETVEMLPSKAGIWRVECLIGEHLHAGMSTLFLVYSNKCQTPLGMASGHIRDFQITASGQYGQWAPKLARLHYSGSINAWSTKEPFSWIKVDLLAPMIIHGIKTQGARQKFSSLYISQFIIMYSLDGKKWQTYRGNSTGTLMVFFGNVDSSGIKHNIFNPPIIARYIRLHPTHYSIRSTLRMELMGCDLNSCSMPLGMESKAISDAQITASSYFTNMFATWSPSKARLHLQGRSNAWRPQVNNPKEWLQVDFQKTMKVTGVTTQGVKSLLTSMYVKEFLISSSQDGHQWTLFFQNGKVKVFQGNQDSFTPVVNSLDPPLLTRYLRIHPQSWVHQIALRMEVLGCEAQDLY
# B1: Hu-vWF[764-1270]-8His S764P-S766W (other)
# chain: PLWCRPPMVKLVCPADNLRAEGLECTKTCQNYDLECMSMGCVSGCLCPPGMVRHENRCVALERCPCFHQGKEYAPGETVKIGCNTCVCRDRKWNCTDHVCDATCSTIGMAHYLTFDGLKYLFPGECQYVLVQDYCGSNPGTFRILVGNKGCSHPSVKCKKRVTILVEGGEIELFDGEVNVKRPMKDETHFEVVESGRYIILLLGKALSVVWDRHLSISVVLKQTYQEKVCGLCGNFDGIQNNDLTSSNLQVEEDPVDFGNSWKVSSQCADTRKVPLDSSPATCHNNIMKQTMVDSSCRILTSDVFQDCNKLVDPEPYLDVCIYDTCSCESIGDCACFCDTIAAYAHVCAQHGKVVTWRTATLCPQSCEERNLRENGYECEWRYNSCAPACQVTCQHPEPLACPVQCVEGCHAHCPPGKILDELLQTCVDPEDCPVCEVAGRRFASGKKVTLNPSDPEHCQICHCDVVNLTCEACQEPGGLVVPPTDAPVSPTTLYVEDISEPPLHDFHHHHHHHH
# Legend:
# [1] = target: recombinant Factor VIII (CSL627, rVIII-SingleChain) (Homo sapiens (Human)) (UniProt P00451); assay: SPR, anti-His capture, FVIII injected, 37 C
# [2] = target: T1, recombinant Factor VIII (CSL627, …); assay: SPR, anti-His capture, FVIII injected, pH 5.5
molecule,measurement,setting,value
Hu-vWF[764-1270]-8His dupS764/S764P/S766I (from UniProt P04275 767-1270),Kd,[1],0.255 nM and 0.199 nM
same,koff,[1],0.00159 s⁻¹ and 0.0025 s⁻¹
same,kon,[1],6.23e+06 M⁻¹ s⁻¹ and 1.25e+07 M⁻¹ s⁻¹
B1,Kd,[2],0.172 nM
same,koff,[2],4.75e-05 s⁻¹
same,kon,[2],277000 M⁻¹ s⁻¹
